Measurements published in the supplement of paper PMC9170038.

System: K4 kissing-loop RNA reporter
Assay: apparent KD of K4 kissing-loop reporter; higher = weaker reporter binding
Settings: Eterna round: R107
Method: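 RNA-MaP round R107: designed RNA switches with theophylline, tryptophan, arginine or FMN aptamers are transcribed on-chip within common flanks. They are titrated with a labelled K4 kissing-loop RNA reporter in RNA-MaP buffer (100 mM Tris pH 7.5, 80 mM KCl, 4 mM MgCl2), without ligand or with the indicated ligand. Median apparent KD per design.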

[1] = input ligand: theophylline 20 uM
[2] = input ligand: tryptophan 2.4 mM
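Further: bound reporter read as fluorescence of individual clusters on recovered sequencing chips by microscopy, with normalized cluster intensities fitted with a binding model.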

| Sequence | apparent KD of K4 kissing-loop reporter (input ligand: FMN 200 uM) [nM] | apparent KD of K4 kissing-loop reporter (input ligand: arginine 13.2 mM) [nM] | apparent KD of K4 kissing-loop reporter (input ligand: none) [nM] | apparent KD of K4 kissing-loop reporter [1] [nM] | apparent KD of K4 kissing-loop reporter [2] [nM] |
| --- | --- | --- | --- | --- | --- |
| GGAUAGGAUAGAGGAUAUGGAAAACACAGAAAUAACUUGUUGUGUUUAUCCAUAGGGAGUGAUGUUCCAGAAGGCUGUCCUAUCG [MatMod 20 - Jieux - Exclusion - FMN B] | 284 | 200 | 192 | 219 | 151 |
| UGAUACCAGGCGGCCGCCACUCCCGCAGGUCAAAGACCUGCGAAGCUGGUUCUCCAGUGAUGUUGGAGGACCGGGCCUGGUAUCU [FiskerMod 26 - Jieux - Exclusion - Tryptophan B] | 191 | 141 | 152 | 168 | 436 |
| UAAGAGGACCACUGCGAGAGUCCUCGAAUACGAGGACCGGUACGGCCGCCACUCGAUAAUUUGCAGUGAUGUUGCAAGUAAGAAU [BrourdMod 6 - Jieux - Same State Tryptophan A] | 64.5 | 114 | 82.4 | 104 | 48.6 |
| GACGGGUUCCUGCUCAAUCCGUCGCAUGAUCGAGGACCGGUACGGCCGCCACUCGAGGCCAUGCCGUACGAGUGAUGUUCGUGCG [Xeon] | 438 | 367 | 403 | 380 | 200 |
| CGAGUCAAUUCAGAUACCAGCCAAUUAAAGUCGAGUGAUGUUCGACAAUGAACAUCCAAAGGCCCUUGGCAGCUGAAUUGGGAAC [Same State Theophylline B GF 18] | 144 | 87.3 | 114 | 228 | 83.4 |
| ACUGAAAGAUCUGAUACCAGACUUUUUGUAUUUAUUAAAACUAGUGAUGUUAGUUUAUCUGUCCCUUGGCAGCAGUUUCUACAGA [JR_Nu_ExcTheophyB_Sub023] | 128 | 132 | 144 | 134 | 117 |
| GUAGGAUGAGGAGGAGGAUGAAUUACUGAAGGAGCGCAUAUAAAUGCAGGUAGGUCGCGGUAAAGAAGUAUAGUGAUGUUAUAUA [SSArgA.G] | 421 | 636 | 580 | 438 | 329 |
| UCGAACGAUGGAAGGAGCGCUCGUCAGUCCUGCGAGUGAUGUUCGUGGGUAAAUAGUCGCGAGCAGGUAGGUCGCCAUCUUGGGC [Reriat] | 153 | 132 | 151 | 136 | 134 |
| GCCGUACGCAUGGAUACCAGAUGGCACUAUUUUCUCCCAGAGUGAUGUUCUGGCCUGCCUAUCCCUUGGCAGCCAUGCGUACGGC | 806 | 616 | 800 | 488 | 671 |
| UUGUUUUACUGAAGGAGCGGCAAUUGAUACGUAGAUAUAGUGAUGUUAUAUAAGAUAGAGAGCCAGGUAGGUCGCAGAUUUUUUU [ExArgB.V] | 164 | 157 | 144 | 185 | 118 |
| CCCUCACGAGUGAUGUUCGUAGGGUACAGUCAGGAUAUCAUGCGGUUGAGAAGGGACAGAGAGGGCGGCGGCGGGUUGCUCAUCU [Isanausbe] | 197 | 217 | 325 | 266 | 215 |
| AACCGAGGUAAUCCACAAAGAUAACAUGAUACCAGAUAUAUAAAUAUCCCUUGGCAGCAUGGCAUGAGUGAUGUUCAUGUGUCUU [KL-SSTheo-A10] | 441 | 325 | 460 | 269 | 356 |
| CUCUAACUGAGAAGGAGCGCGAUAUAAACACUCGCACAGUGAUGUUGUGUGUCAAGGGUAUCGCAGGUAGGUCGCUCAGAUACCU [Arg B SS t15] | 294 | 247 | 255 | 273 | 248 |
| CAUACGCAUGGAGGAUAUGAGAUUACUCAUAUUAUUUAAUAUUCUCAGUGAUGUUGAGAUAUAAACUCAGAAGGCCAUGUGUAUG [Ex FMN B 1] | 184 | 152 | 143 | 166 | 153 |
| AAAAUAAUCCAGUGAUGUUGGUCUCCAGAUACCAGCGACGAAAGUCGCCCUUGGCAGCUGUGGACGUACAAAAUAAGUACGUCCU | 366 | 416 | 464 | 345 | 314 |
| AGAACUGUCUGGGAUACCAGCCGAGGAGUGAUGUUCCGGCUCGACGAAACGUCGAGCCACGGCCCUUGGCAGCUCAGACAGUUCA [#21 K4 Theophylline B Same State] | 674 | 332 | 1050 | 1250 | 759 |
| GCCGUAGAUUGAAGGAGCGUUCUUACUGAGUACGGCAACCGGAAGUGAUGUUUCCAGGUGGAACAGGUAGGUCGCAAUCUACGGC | 102 | 87.4 | 105 | 88 | 93.9 |
| GGGAAGAAGGCGGCCGCCACUGCAGAAGAGACAGAGAGGGAAGAAGAGGAGUGAUGUUCCAAGAACAGGACCGGGCCAAGAAGGG [whbob_SS_Tryp_B_t29] | 598 | 137 | 119 | 284 | 92.9 |
| AAAAUAAAGCAGUGAUGUUGCAUAUGAGAAGGAGCGCACGAAAGUGCAGGUAGGUCGCUCAGCCAAGUGGACGAAAACGUCCACA [#OpenEnded 9 #K4Early] | 107 | 172 | 119 | 168 | 93.7 |
| UAGGAGUGAUGUUCCUAUAGCAGGUAGGAAGGAGCGCCCAUUUGGGCAGGUAGGUCGCCUACCGGCCCUAAGUUAAACCUUAGGC [Rariar] | 99.6 | 111 | 92.6 | 109 | 89 |
| AUGCGCGUGCGAUGAAAAUCGCACGCGCAUCGAGGACCGGUACGGCCGCCACUCGCUCGCGCCGAGUGAUGUUCGGCCGGCGAAC [#2 Same State - Tryptophan A Attempt #4 (HarryS)] | 278 | 268 | 267 | 217 | 506 |
| AAGGUAUCACCAACAUUGCAAGAAGGUGAUACCAGCAUCGAAAGAUGCCCUUGGCAGCACCAACUUGCAGUGAUGUUGCAAGUAA [(T)'-(H)'-(T1)-(T2)-(H1)-(H2)_Design8] | 274 | 210 | 267 | 213 | 226 |

| Sequence | apparent KD of K4 kissing-loop reporter (input ligand: FMN 200 uM) [nM] | apparent KD of K4 kissing-loop reporter (input ligand: arginine 13.2 mM) [nM] | apparent KD of K4 kissing-loop reporter (input ligand: none) [nM] | apparent KD of K4 kissing-loop reporter [1] [nM] | apparent KD of K4 kissing-loop reporter [2] [nM] |
| --- | --- | --- | --- | --- | --- |
| CGUGCCCGGCCGGAUACCAGUGACCCGCUGGGAACCGCGGGCCCAGAGUGAUGUUCGGGACACCCUUGGCAGCCGCCUGGGCGGC [#2 Same State - Theophylline B Attempt #13 (HarryS)] | 987 | 637 | 1080 | 614 | 655 |
| AAACCAAUCAGAGGAUAUUCUUUAUUCGACAUAACCUUCUAUAAGGUGCAGUGAUGUUGCAAUAUAGGAGAAGGCUGAUUGACAA [Exclusion FMN B Gf 13] | 232 | 338 | 516 | 488 | 413 |
| CUAUGGAAACAUAGUGAUCGGGAAACCGAUACCAGUAUGGAAACAUACCCUUGGCAGCGGAAUGAUCUAACGGAGUGAUGUUCCG [Theophylline A K4 23] | 492 | 456 | 574 | 389 | 496 |
| CCAUCGCUAUUCGAUACCAGCUAAAUAUAAUAUAACCAGUGAUGUUGGUAUAUAAAUAUAAGCCCUUGGCAGCGAAUAGUGAUGG [Theophylline B K4 30] | 139 | 107 | 113 | 103 | 109 |
| GCCAGAUAGACGGCCGCCACUUAUAAGUUUCAGUGAUGUUGGAACGGCAAAUGCCGAACACAAUAGAGGACCGGGUCAACUGGCG [Same State Tryptophan B GF 1] | 920 | 591 | 835 | 901 | 639 |
| GUGCGGCUAGUGAUGUUGGUUGUGUGGGAAGGAGCGCAGAUUCAUGCAGGUAGGUCGCCCACACGUCUGAAAGGAUGAUAAUUCA [#12 K4 Arginine A Same State] | 409 | 306 | 354 | 407 | 350 |
| GGAUAGGAUAGAGGAUAUGGGCUAGGCAAGAAUAACUUGUCUAGCAAAUCCAUGAGGAGUGAUGUUCCAGAAGGCUGUCCUAUCG [FmnBX 1 U9] | 901 | 169 | 152 | 211 | 128 |
| GGAGUUACCUGGGAUACCAGUCGGAGUCCUAGAGCUCGGAGUGAUGUUCUGGGAUGUUUCGGCCCUUGGCAGCUCUGGGACUCCC [#2 Exclusion - Theophylline B Attempt #11 (HarryS)] | 615 | 470 | 949 | 921 | 630 |
| GGCUCCUACGGAGGAUAUAGUAGCCCAGAGUGAUGUUCUAGGGUGUUUUCCGAUUUAGUCAUUGUUCUAGAAGGCCGUAGGAGCC | 266 | 177 | 189 | 183 | 210 |
| ACGUAGUUCUAGGAUACCAGCCAAGGCGCAGGACAAAAGUCCUGCGUCGCCAGUGAUGUUGGCCCUUGGCAGCCUAGAACUACGA [Omei KL Theo B Exc B v12] | 334 | 302 | 304 | 364 | 308 |
| GCCGUAGAUUGAAGGAGCGGGAGAGGGAAAGUGAUGUUUUCUCUAUGACGGCGUCCUCGAUCCCAGGUAGGUCGCAAUCUACGGC | 137 | 80.7 | 99.7 | 80.3 | 105 |
| UGAUAGGACAGAAGGAGCGGAAGUGAUGUUUCCAAAUGGAUAAGGUGUCAAAAGACACCCUUCCAGGUAGGUCGCUGUCCUAUCU [ArgBX 14 #Palindromic #SwitchBubble #StaticStem] | 111 | 112 | 130 | 102 | 101 |
| AAUGUACAGGGAAGGAGCGCCGUCCAGUGAUGUUGGAGUUAAAUACCAGUGAUGUUGGUUAGGCAGGUAGGUCGCCCUAUAGUAU [#07 K4 Arginine B Exclusion] | 126 | 92.9 | 117 | 134 | 108 |
| AUUCACCUGUCGGCCGCCACUGCGUUAGCAGUAUCGGGCAGAAACUUCGCAGUGAUGUUGCGACUCAGGACCGGGACGUUGAGGA [theeternabot_exclusion_KL_Trp_B_29] | 445 | 406 | 468 | 454 | 504 |
| AUCAUUGAGUGAUGUUCAAUGGGUUUUCCCAAGGAUAUUCGGAGCUGAAGAAGGUGGCCCUCGAUAUCAGUAUCAACCUGAAAGC [theeternabot_exclusion_KL_FMN_A_11] | 360 | 340 | 381 | 388 | 243 |
| UUUGUAUAGGGAAGGAGCGUGAAUGAUAAUGAAUAUAGUGAUGUUAUAUAUAAGAAAGAAUCACAGGUAGGUCGCCCGGAGGAGG [SSArgB.J] | 612 | 410 | 668 | 1350 | 428 |
| AAUUGGGACGAAGGAUAUUGUCGGCCAUGUACGAGGUCCGGAUGUCAUGACUGUUAGUGAUGUUAACAAGAAGGUCGAGGGAGAC [theeternabot_exclusion_KL_FMN_B_25] | 87 | 107 | 103 | 119 | 86.3 |
| GUUACGCAUGGAAGGAGCGCAUGCUCAACAAUAAGCUCAGUGAUGUUGAGCAAAAUUAAAAUGCAGGUAGGUCGCCAUGUGUAAC [Ex Arginine B K4 28] | 542 | 519 | 576 | 528 | 555 |
| UGGAGUUGACGAAAAGUCAACUCCUGAGAUACCAGUGACGAAAGUCACCCUUGGCAGCUCACUGGCAGUGAUGUUGCAAAAUAAA [KL-SSTheo-A4] | 135 | 52.2 | 60 | 84.7 | 123 |
| UUUCUUUUUUUGAUGUUUUUUGUAUAAUGGCAGGAUAUCGUAGAUGCGAGAAGGGCUUUUAUGCGUUAUGAGUGAUGUUUGUAGG [aaxazvmullin] | 324 | 270 | 320 | 272 | 256 |
| AUGGUGGAGGAGUGAUGUUCUUGGAGUAGGUAGGAUAUGAGUGAUGUUAGAAGGAUCGGAGUGAUGUUCCAGGUGGUUGUGUUGU [KL-SSFMN-A2] | 570 | 303 | 765 | 453 | 412 |
